The supplement of paper PMC10126150
± gives the standard deviation of the averaged measurements.

System: ATP
Experiment: switch fluorescence ratio, 500 uM ATP over buffer (Cy3 cluster intensity, sum of 5 cycles each) (fold (ratio)); higher = stronger signal-on switching upon ATP binding; sequences stand for … in TCGTCGGCAGCGTCAGATGTGTATAAGAGACAGTTTTTTTTTTTTTTTTTTTTTTTTT…TC
Conditions: aptamer strand: ATP DNA aptamer (quencher-CACCTGGGGGAGTATTGCGGAGGAAGG + anchor), 100 nM annealed; ATP concentration: 500 uM
Outline: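 Cy3-labelled switching-strand clusters on a modified Illumina MiSeq flow-cell were annealed to 100 nM quencher-labelled ATP aptamer, imaged in selection buffer, then imaged after 15 min with 500 uM ATP at 22 °C. Five buffer/ATP cycles ran, with NaOH stripping and re-annealing between them. The fluorescence ratio is summed target-cycle over summed buffer-cycle Cy3 intensity per cluster, averaged per switch-domain sequence. Clusters outside 100-1000 RFU were excluded.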
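Note: ATP exposure 15 min at 22 °C before imaging.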

| Sequence | switch fluorescence ratio |
| --- | --- |
| TTTTGGGCCC | 1.04 ± 0.076 |
| TTTTGGGCTT | 1.12 ± 0.22 |
| TTTTGGGGC | 1.04 ± 0.013 |
| TTTTGGGGGG | 1.02 ± 0.081 |
| TTTTGGGTCC | 1.06 ± 0.04 |
| TTTTGGGTTA | 0.992 ± 0.043 |
| TTTTGGGTTG | 1.03 ± 0.076 |
| TTTTGGTATA | 1.05 ± 0.055 |
| TTTTGGTCCG | 1.034 ± 0.0074 |
| TTTTGGTGG | 0.974 ± 0.033 |
| TTTTGGTTAG | 0.983 ± 0.015 |
| TTTTGGTTTG | 1 ± 0.034 |
| TTTTGTACGC | 1.097 ± 0.0065 |
| TTTTGTAGCT | 0.963 ± 0.023 |
| TTTTGTCAAA | 1.02 ± 0.035 |
| TTTTGTCACT | 1.034 ± 0.0031 |
| TTTTGTGTTC | 0.993 ± 0.027 |
| TTTTGTTAGA | 1.03 ± 0.022 |
| TTTTGTTGTG | 0.999 ± 0.034 |
| TTTTGTTTCA | 1 ± 0.022 |
| TTTTGTTTCG | 1.01 ± 0.028 |
| TTTTGTTTGT | 1.01 ± 0.037 |

| Sequence | switch fluorescence ratio |
| --- | --- |
| TTTTGTTTT | 1.02 ± 0.027 |
| TTTTGTTTTC | 1.11 ± 0.23 |
| TTTTTAAA | 0.988 ± 0.017 |
| TTTTTAAAGT | 0.993 ± 0.026 |
| TTTTTAACTC | 1.03 ± 0.021 |
| TTTTTAAGAG | 1 ± 0.014 |
| TTTTTAAGGA | 1.04 ± 0.048 |
| TTTTTAAGGT | 1 ± 0.015 |
| TTTTTAATGT | 0.998 ± 0.062 |
| TTTTTACAGA | 1.04 ± 0.025 |
| TTTTTACCTT | 1.07 ± 0.046 |
| TTTTTACGAA | 1.01 ± 0.022 |
| TTTTTACGGC | 1.02 ± 0.016 |
| TTTTTACTGT | 1.01 ± 0.017 |
| TTTTTAGAAG | 0.985 ± 0.01 |
| TTTTTAGGAA | 1.04 ± 0.055 |
| TTTTTAGGAT | 1.11 ± 0.17 |
| TTTTTAGTAT | 1.01 ± 0.035 |
| TTTTTATCAT | 0.998 ± 0.037 |
| TTTTTATCTG | 0.9654 ± 0.002 |
| TTTTTATGAC | 1.01 ± 0.029 |
| TTTTTATGAT | 0.983 ± 0.022 |

| Sequence | switch fluorescence ratio |
| --- | --- |
| TTTTTATGC | 0.975 ± 0.071 |
| TTTTTATGCC | 0.963 ± 0.05 |
| TTTTTATGCG | 0.999 ± 0.06 |
| TTTTTATTAG | 0.983 ± 0.027 |
| TTTTTATTGC | 1 ± 0.035 |
| TTTTTCAACC | 1.02 ± 0.017 |
| TTTTTCAAGT | 1.1 ± 0.29 |
| TTTTTCACGC | 1.04 ± 0.019 |
| TTTTTCAGTG | 0.991 ± 0.039 |
| TTTTTCCAT | 1 ± 0.02 |
| TTTTTCCATT | 1.01 ± 0.027 |
| TTTTTCCTGT | 1.01 ± 0.011 |
| TTTTTCCTTG | 1.04 ± 0.018 |
| TTTTTCCTTT | 1.02 ± 0.033 |
| TTTTTCGCTT | 1.06 ± 0.077 |
| TTTTTCGTCA | 1.037 ± 0.0074 |
| TTTTTCGTGT | 0.975 ± 0.038 |
| TTTTTCTATT | 0.988 ± 0.019 |
| TTTTTCTTCG | 1.21 ± 0.099 |
| TTTTTCTTTG | 1.04 ± 0.065 |
| TTTTTGACAC | 1.26 ± 0.38 |
| TTTTTGAGAG | 0.998 ± 0.032 |

| Sequence | switch fluorescence ratio |
| --- | --- |
| TTTTTGAGC | 1.011 ± 0.0086 |
| TTTTTGAGGA | 0.995 ± 0.017 |
| TTTTTGCCTA | 1.015 ± 0.0089 |
| TTTTTGCGCT | 1.04 ± 0.047 |
| TTTTTGCTAG | 0.986 ± 0.013 |
| TTTTTGCTCA | 0.9912 ± 0.0055 |
| TTTTTGCTGT | 2.91 ± 3.3 |
| TTTTTGCTTT | 1.06 ± 0.099 |
| TTTTTGGCAT | 1.01 ± 0.033 |
| TTTTTGGCGC | 1.01 ± 0.032 |
| TTTTTGGGTT | 1.02 ± 0.048 |
| TTTTTGGTAT | 1.01 ± 0.047 |
| TTTTTGGTTA | 1 ± 0.016 |
| TTTTTGTAAT | 1.04 ± 0.055 |
| TTTTTGTATA | 0.979 ± 0.027 |
| TTTTTGTATT | 1.03 ± 0.02 |
| TTTTTGTGA | 0.995 ± 0.026 |
| TTTTTGTTC | 0.99 ± 0.023 |
| TTTTTTACGG | 1.02 ± 0.019 |
| TTTTTTAGGA | 1.01 ± 0.019 |
| TTTTTTAGGG | 0.988 ± 0.029 |
| TTTTTTATAT | 0.987 ± 0.025 |

| Sequence | switch fluorescence ratio |
| --- | --- |
| TTTTTTATCA | 0.98 ± 0.029 |
| TTTTTTCATG | 0.988 ± 0.033 |
| TTTTTTCGGC | 0.988 ± 0.022 |
| TTTTTTCGTC | 1.02 ± 0.011 |
| TTTTTTGGAT | 1.01 ± 0.022 |
| TTTTTTGGGC | 0.99 ± 0.068 |
| TTTTTTGTCG | 0.993 ± 0.053 |
| TTTTTTGTGA | 1 ± 0.08 |
| TTTTTTGTGG | 0.978 ± 0.031 |
| TTTTTTTAAC | 0.999 ± 0.032 |
| TTTTTTTACC | 1.01 ± 0.021 |
| TTTTTTTACT | 1.02 ± 0.029 |
| TTTTTTTAGA | 0.995 ± 0.022 |
| TTTTTTTAT | 1.014 ± 0.01 |
| TTTTTTTCTC | 0.992 ± 0.056 |
| TTTTTTTTAT | 1 ± 0.024 |
| TTTTTTTTC | 1.045 ± 0.0071 |
| TTTTTTTTCA | 1.01 ± 0.053 |
